Consider one molecule from patent US20260201045A1 (Regeneron, published 2026).

The target in experiment [1] is T1, human CNTFR extracellular domain (Q23-V105)/mCNTFR (G106-S342) expressed with a C-terminal … (human/mouse chimera, UniProt P26992 23-342).
T1 construct: Human/mouse chimeric CNTFR domain protein; also called hCNTFR (Q23-V105)/mCNTFR (G106-S342).mmh; hCNTFR (Q23-V105)_mCNTFR (G106-S342).mmh
T1 chain: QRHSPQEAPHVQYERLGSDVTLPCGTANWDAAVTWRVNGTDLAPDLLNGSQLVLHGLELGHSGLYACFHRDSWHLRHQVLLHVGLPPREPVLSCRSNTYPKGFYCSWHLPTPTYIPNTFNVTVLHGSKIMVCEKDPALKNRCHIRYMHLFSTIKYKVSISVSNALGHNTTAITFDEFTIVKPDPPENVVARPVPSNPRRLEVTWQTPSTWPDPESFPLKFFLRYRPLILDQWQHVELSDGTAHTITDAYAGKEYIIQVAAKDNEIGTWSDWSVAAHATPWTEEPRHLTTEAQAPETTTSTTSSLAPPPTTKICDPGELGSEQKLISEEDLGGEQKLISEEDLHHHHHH
Nature of the experiment: SPR Biacore S200, antigen captured by anti-myc, mAb injected, 25 C. (In general: Surface plasmon resonance follows binding to a sensor surface in real time, without labels.)

Experiment [2] addresses T1, human CNTFR extracellular domain …. The experiment can be described thus: SPR Biacore S200, antigen captured by anti-myc, 100 nM mAb injected, 25 C.
For experiment [3], the target named is T2, human CNTFR extracellular domain (Q23-D205)/mCNTFR (P206-S342) expressed with a C-terminal … (human/mouse chimera, UniProt P26992 23-342).
T2 construct: Human/mouse chimeric CNTFR domain protein; also called hCNTFR (Q23-D205)/mCNTFR (P206-S342).mmh; hCNTFR (Q23-D205)_mCNTFR(P206-S342).mmh
The description is as above.

The target of experiment [4] is T3, human CNTFR extracellular domain expressed with a C-terminal myc-myc-hexahistidine tag (human, UniProt P26992 23-342).
T3 construct: The entry holds the tag as well; also called hCNTFR-mmh; hCNTFR.mmh
The experiment is described as above.

The target of experiment [5] is T4, human CNTFR extracellular domain expressed with a C-terminal mouse IgG2a Fc tag (human).
T4 construct: also called hCNTFR-mFc; dimeric hCNTFR-mFc
T4 chain: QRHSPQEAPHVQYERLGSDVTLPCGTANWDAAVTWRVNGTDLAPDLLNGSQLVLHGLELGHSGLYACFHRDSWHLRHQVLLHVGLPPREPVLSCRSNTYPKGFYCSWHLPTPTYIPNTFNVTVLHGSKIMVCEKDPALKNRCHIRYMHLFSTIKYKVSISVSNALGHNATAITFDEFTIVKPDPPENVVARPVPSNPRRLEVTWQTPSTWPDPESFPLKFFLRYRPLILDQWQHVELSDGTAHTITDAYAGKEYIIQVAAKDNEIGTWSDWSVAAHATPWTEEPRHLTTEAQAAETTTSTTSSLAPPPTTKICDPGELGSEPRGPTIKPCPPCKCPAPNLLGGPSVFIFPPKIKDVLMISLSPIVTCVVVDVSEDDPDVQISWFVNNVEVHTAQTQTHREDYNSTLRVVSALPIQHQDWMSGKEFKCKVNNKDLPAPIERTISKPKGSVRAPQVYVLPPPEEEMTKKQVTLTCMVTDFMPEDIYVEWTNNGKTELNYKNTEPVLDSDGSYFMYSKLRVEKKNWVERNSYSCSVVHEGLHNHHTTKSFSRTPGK
Nature of the experiment: SPR Biacore 4000, mAb captured by anti-human Fc, antigen injected, 37 C. The procedure: (§1) Equilibrium dissociation constants (KD) for CNTFR binding to purified anti-CNTFR monoclonal antibodies were determined using a real-time surface plasmon resonance (SPR) based Biacore 4000 biosensor. All binding studies were performed in 10 mM HEPES, 150 mM NaCl, 3 mM EDTA, and 0.05% v/v surfactant Tween-20, pH 7.4 (HBS-ET) running buffer at 25° C. and 37° C. The Biacore CM4 sensor surface was first derivatized by amine coupling with a monoclonal mouse anti-human Fc antibody (REGN2567) to capture anti-CNTFR monoclonal antibodies. Different concentrations of CNTFR reagents, human CNTFR extracellular domain expressed with a C-terminal myc-myc-hexahistidine tag (hCNTFR-mmh; SEQ ID NO:42), monkey CNTFR extracellular domain expressed with a C-terminal myc-myc-hexahistidine tag (mfCNTFR-mmh; SEQ ID NO:43), mouse CNTFR extracellular domain expressed with a C-terminal myc-myc-hexahistidine tag (mCNTFR-mmh; SEQ ID NO:44), and human CNTFR extracellular domain expressed with a C-terminal mouse IgG2a Fc tag (hCNTFR-mFc; SEQ ID NO: 45), at concentrations ranging from 6.25 nM to 100 nM in a series of 4-fold dilutions prepared in HBS-ET running buffer were injected at a flow rate of 30 μL/min for 2.5 minutes. The dissociation of different CNTFR reagents bound to anti-CNTFR monoclonal antibodies was monitored for 10 minutes in HBS-ET running buffer. At the end of each cycle, the anti-CNTFR monoclonal antibodies capture surface was regenerated using a 12 sec injection of 20 mM H3PO4. The association rate (ka) and dissociation rate (kd) were determined by fitting the real-time specific binding sensorgrams to a 1:1 binding model with mass transport limitation using Scrubber 2.0c curve-fitting software. Binding dissociation equilibrium constant (KD) and dissociative half-life (t½) were calculated from the kinetic rates as: […]

Experiment [6] addresses T5, full length mouse CNTFR (mCNTFR, amino acids 1-372, UniProtKB/Swiss-Prot Accession #088507) (mouse, UniProt O88507 23-342).
T5 construct: whole, on cells; also called HEK293/mCNTFR
T5 sequence (looked up): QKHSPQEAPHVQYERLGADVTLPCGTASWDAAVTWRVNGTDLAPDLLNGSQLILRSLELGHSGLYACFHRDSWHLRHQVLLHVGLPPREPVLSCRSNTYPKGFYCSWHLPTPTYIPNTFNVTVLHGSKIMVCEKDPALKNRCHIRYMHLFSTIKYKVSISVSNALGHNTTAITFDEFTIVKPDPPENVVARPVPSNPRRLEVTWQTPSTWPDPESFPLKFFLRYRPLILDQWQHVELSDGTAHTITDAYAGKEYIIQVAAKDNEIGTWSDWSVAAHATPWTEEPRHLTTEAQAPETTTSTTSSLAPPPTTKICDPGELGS
Nature of the experiment: flow cytometry on HEK293/mCNTFR cells. The procedure:
(§2) To assess binding of the anti-CNTFR antibodies to CNTFR receptors expressed on the cell surface, each of the HEK293/CNTFR cells listed above or HEK293 parental cells were diluted to 5×10⁵ cells/well in 96-well v-bottom plates. […] Cells were fixed using BD CytoFix™ (Becton Dickinson, #554655), filtered, and then analyzed on IQuePlus® Flow Cytometer (Intellicyt®). Geometric Mean Fluorescent Intensity (MFI) values were calculated by Forecyt Software and plotted in GraphPad Prism using a 4-parameter logistic equation over the 8-point dose-response curve to obtain EC₅₀ values. […] The secondary only condition was excluded from the EC₅₀ calculation.
A general note: A flow cytometer gives signals particle by particle.

For experiment [7], the target named is T4, human CNTFR extracellular domain …. Nature of the experiment: SPR Biacore 4000, mAb captured by anti-human Fc, antigen injected, 25 C. The procedure:
as §1

Experiment [8] has as its target T6, mouse CNTFR extracellular domain expressed with a C-terminal myc-myc-hexahistidine tag (mouse, UniProt O88507 23-342).
T6 construct: The entry holds the tag as well; also called mCNTFR-mmh
Described as above. The procedure:
as §1

The target of experiment [9] is T7, full length human CNTFR (hCNTFR, amino acids 1-372, UniProtKB/Swiss-Prot Accession #P26992) (human, UniProt P26992 23-342).
T7 construct: also called HEK293/hCNTFR; CNTFR endogenously expressed on IMR-32/STAT3-luc cells
T7 sequence: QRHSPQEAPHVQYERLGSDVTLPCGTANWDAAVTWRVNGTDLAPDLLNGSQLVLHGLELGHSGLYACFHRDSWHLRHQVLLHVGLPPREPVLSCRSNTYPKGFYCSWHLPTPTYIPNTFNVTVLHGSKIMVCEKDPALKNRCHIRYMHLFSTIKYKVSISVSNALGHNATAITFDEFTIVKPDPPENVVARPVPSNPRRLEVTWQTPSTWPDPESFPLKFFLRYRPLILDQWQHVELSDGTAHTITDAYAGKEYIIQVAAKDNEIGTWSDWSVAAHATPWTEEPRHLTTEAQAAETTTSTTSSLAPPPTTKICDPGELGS
Nature of the experiment: flow cytometry on HEK293/hCNTFR cells. The procedure: as §2

B1: mAb25311P2 (antibody, human IgG4 S228P, kappa, V domains shown)
VH: QVQLVESGGGVVQPGRSLRLSCVASGFTFSTSVMHWVRQAPGKGLEWVANIWYDGINKFYVDSVKGRFTISRDNSKNTLYLQMNSLRAEDTAVYYCAREFWSAFDLWGQGTMVTVSS
VL: not shown
Broadly, the Kd is the free concentration of one partner at which half of the binding sites on the other are occupied at equilibrium, for simple one-to-one binding. A low value points to higher affinity. As usually defined, the koff is the rate constant with which the complex falls apart. For orientation: kon means a measure of how fast the partners come together. By t½ is commonly meant how long it takes for the measured level to halve. One may read the EC50 as the concentration needed to bring the measured effect to its halfway point. Lower therefore signals an effect from little substance. As to B1, the results for the binding result in experiment [1], in experiment [6] and in experiment [8] were “no binding (tested: 100 nM)”, “no binding (tested: 375 nM)” and “no binding (tested: 100 nM)”, respectively. Besides, the “100 nM mAb Bound (RU)” value in experiment [2] came to 1 RU; in experiment [3], 89 RU; in [4], 80 RU. Besides, the Kd was determined as 27.2 nM in experiment [5] and 7.22 nM in experiment [7]. Moreover, the koff amounted to 0.000784 s⁻¹ in experiment [5] and 0.000125 s⁻¹ in [7]. For the same molecule, the kon in experiment [5] came to 28800 M⁻¹ s⁻¹; in experiment [7], 17300 M⁻¹ s⁻¹. Moreover, the figures for the t½ in [5] and in experiment [7] were 15 min and 93 min, respectively. This molecule gave a concentration giving a half-maximal response (EC50) in experiment [9] of 4.33 nM. Also, the “Max. Fold Binding” value in experiment [9] is 510 fold over secondary antibody alone.
